The text below walks through data of paper doi:10.1101/2025.01.14.633037.

A short description of the data set: FRET or BRET; DAmFRET: mEos3.1 fusions expressed in S. cerevisiae, galactose induction 20 hr with 100 uM MG132, partial photoconversion of mEos3.1, flow cytometry; AmFRET between copies of the same protein against its intracellular concentration (approximately 2 to 200 uM). A general note: In BRET a luciferase serves as donor, and the signal depends on an acceptor being close.

For “MBP fused to mEos3.1 and poly-TA (28 residues, two continuous TA tracts of length 12)”, the fold increase of Csat against poly-TA without the solubility tag was > 10 fold.
